Key:
[1] = target: human CD11b (Integrin alpha-M), full length (human) (UniProt P11215); test: cell-based or functional assay
[2] = target: human recombinant CD11b I domain (N-terminal 6x-His, C-terminal 6x-glycine linker and 3x-Flag) (human) (UniProt P11215); test: SPR (Biacore T100), human I domain immobilised on CM5 chip, LukAB as analyte, multi cycle kinetics
CD63 antigen (human) = CD63 antigen (human) (UniProt P08962); test: His-LukAB pull-down from solubilised primary human PMNs on nickel resin, mass spectrometry
Sequence of UniProt P08962 (P08962 2-238 limits assumed): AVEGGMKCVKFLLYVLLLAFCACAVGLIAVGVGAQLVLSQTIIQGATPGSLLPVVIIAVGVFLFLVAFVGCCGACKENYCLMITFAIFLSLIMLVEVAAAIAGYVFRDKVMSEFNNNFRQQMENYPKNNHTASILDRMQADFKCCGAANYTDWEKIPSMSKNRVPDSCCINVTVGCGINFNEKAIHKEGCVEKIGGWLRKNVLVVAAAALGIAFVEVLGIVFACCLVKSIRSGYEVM

cDNA FLJ76817 (human) = test: as above
Sequence of cDNA FLJ76817 (human) (Q15233 whole entry): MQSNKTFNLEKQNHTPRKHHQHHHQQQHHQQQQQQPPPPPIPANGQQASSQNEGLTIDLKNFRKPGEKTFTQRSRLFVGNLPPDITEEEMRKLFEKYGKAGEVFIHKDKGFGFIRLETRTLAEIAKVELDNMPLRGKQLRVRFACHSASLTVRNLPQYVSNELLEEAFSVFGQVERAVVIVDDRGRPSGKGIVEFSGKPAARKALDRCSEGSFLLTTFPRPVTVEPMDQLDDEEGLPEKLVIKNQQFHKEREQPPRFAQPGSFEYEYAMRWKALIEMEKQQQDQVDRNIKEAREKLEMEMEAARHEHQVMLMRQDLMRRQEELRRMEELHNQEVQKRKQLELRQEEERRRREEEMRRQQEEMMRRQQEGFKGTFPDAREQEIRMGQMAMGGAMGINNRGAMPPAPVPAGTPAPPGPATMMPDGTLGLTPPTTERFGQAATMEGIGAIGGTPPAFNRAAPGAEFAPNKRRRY

Transketolase (human) = Transketolase (human) (UniProt P29401); test: as above
cDNA FLJ53963 (human) = test: as above
Sequence of cDNA FLJ53963 (human) (P30740 whole entry): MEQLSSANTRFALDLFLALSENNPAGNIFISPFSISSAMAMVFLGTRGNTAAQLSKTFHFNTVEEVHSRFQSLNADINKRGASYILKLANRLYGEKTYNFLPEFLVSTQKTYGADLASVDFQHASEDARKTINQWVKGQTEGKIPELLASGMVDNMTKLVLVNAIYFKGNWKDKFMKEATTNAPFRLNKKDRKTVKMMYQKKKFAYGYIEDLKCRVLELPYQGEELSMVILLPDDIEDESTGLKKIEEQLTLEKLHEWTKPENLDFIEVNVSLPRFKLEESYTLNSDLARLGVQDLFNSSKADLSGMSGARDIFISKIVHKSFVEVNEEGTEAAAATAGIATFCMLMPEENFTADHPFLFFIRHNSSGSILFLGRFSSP

[3] = target: Hemoglobin subunit beta (human) (UniProt P68871); test: as above
[4] = target: Guanine nucleotide-binding protein G(i) (human) (UniProt P04899); test: as above
[5] = target: E3 ubiquitin-protein ligase CBL (human) (UniProt P22681); test: as above
[6] = target: ATP synthase subunit beta (human) (UniProt P06576); test: as above
Sequence of UniProt P06576 (P06576 48-529): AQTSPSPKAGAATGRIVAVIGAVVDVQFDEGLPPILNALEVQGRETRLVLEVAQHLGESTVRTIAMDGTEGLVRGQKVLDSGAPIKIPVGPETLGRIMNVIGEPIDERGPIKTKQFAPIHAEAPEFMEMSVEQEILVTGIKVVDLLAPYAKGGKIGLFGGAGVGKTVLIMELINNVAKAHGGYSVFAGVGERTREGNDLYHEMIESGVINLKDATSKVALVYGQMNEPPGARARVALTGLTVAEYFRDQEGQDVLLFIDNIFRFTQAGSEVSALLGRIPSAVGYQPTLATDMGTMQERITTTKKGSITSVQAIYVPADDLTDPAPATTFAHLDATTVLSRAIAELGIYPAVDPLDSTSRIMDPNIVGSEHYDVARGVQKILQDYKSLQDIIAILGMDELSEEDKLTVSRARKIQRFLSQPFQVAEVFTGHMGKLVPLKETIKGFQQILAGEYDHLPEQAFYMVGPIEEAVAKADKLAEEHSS

Alpha-enolase (human) = Alpha-enolase (human) (UniProt P06733); test: as above
Alpha-actinin-1 (human) = Alpha-actinin-1 (human) (UniProt P12814); test: as above
[7] = target: Hemoglobin subunit alpha (human) (UniProt P69905); test: as above
[8] = target: Putative uncharacterized protein LCN2 (human) (UniProt P80188); test: as above
Sequence of UniProt P80188 (P80188 21-198 limits assumed): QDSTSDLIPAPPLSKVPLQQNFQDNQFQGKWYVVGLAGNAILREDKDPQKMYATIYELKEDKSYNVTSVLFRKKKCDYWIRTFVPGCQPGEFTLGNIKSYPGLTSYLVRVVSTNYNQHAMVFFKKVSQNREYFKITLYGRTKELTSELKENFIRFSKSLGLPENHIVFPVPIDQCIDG

[9] = target: Beta-adrenergic receptor kinase 1 (human) (UniProt P25098); test: as above
[10] = target: Peptidoglycan recognition protein (human) (UniProt O75594); test: as above
Sequence of UniProt O75594 (O75594 22-196 limits assumed): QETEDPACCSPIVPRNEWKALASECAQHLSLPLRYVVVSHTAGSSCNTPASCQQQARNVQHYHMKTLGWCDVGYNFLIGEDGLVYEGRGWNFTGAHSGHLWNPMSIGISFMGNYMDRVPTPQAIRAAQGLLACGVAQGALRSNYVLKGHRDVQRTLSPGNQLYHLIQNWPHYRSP

Cntm_P13645 = Cntm_P13645 (UniProt P13645); test: as above
cDNA FLJ55635 (human) = test: as above
Sequence of cDNA FLJ55635 (human) (O43143 whole entry): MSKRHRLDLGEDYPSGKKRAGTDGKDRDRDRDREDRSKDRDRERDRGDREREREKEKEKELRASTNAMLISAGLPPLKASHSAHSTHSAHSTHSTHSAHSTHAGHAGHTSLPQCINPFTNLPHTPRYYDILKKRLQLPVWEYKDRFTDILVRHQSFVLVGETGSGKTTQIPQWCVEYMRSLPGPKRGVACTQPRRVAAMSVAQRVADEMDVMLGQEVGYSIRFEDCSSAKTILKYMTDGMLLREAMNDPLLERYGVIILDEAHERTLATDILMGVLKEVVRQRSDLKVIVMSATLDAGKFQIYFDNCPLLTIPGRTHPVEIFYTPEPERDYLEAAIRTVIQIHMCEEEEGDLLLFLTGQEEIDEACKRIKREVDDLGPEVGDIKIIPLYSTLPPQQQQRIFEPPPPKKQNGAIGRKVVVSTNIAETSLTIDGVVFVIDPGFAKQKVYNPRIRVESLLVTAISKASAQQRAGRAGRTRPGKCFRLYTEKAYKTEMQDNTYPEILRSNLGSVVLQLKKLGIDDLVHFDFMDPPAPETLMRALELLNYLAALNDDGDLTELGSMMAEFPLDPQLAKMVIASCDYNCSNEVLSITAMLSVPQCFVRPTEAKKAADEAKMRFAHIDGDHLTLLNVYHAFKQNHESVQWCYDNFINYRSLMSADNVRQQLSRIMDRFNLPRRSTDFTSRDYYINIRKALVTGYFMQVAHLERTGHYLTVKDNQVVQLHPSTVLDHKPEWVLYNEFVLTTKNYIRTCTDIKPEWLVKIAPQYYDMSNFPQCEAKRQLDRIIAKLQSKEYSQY

Malic enzyme (human) = Malic enzyme (human) (UniProt P23368); test: as above
[11] = target: human CD11b (Integrin alpha-M), full length (human) (UniProt P11215); test: as above
Catalase (human) = Catalase (human) (UniProt P04040); test: as above
Sequence of UniProt P04040 (P04040 2-527 limits assumed): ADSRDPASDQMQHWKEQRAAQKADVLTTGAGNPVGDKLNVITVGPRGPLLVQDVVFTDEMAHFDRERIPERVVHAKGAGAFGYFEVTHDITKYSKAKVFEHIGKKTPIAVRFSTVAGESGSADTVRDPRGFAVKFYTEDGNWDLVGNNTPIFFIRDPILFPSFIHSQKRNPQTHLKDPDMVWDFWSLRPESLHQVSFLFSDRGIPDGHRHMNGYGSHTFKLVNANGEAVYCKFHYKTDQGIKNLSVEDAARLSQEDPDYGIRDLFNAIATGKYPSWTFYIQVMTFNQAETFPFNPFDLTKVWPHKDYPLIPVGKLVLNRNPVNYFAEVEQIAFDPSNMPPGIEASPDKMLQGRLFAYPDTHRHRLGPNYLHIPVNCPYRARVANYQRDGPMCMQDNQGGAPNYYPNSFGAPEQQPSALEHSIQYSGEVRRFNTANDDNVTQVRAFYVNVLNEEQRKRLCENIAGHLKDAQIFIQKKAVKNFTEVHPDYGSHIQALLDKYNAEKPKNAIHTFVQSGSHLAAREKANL

[12] = target: 6-phosphogluconate dehydrogenase (human) (UniProt P52209); test: as above
Sequence of UniProt P52209 (P52209 whole entry): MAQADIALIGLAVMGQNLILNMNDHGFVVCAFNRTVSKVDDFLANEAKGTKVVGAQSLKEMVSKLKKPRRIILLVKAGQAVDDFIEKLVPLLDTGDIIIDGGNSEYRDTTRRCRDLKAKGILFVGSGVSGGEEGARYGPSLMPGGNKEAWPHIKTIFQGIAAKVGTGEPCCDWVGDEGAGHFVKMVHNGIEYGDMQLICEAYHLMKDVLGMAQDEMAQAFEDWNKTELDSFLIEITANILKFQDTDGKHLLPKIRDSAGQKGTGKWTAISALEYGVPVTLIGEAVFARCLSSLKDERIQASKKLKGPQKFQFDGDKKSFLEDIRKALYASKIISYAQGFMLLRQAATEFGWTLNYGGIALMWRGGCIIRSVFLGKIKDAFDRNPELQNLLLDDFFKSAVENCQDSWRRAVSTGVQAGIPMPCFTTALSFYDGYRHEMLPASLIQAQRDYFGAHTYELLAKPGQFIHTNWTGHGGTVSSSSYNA

[13] = target: Mitogen-activated protein kinase 1 (human) (UniProt P28482); test: as above
Serum albumin (human) = Serum albumin (human) (UniProt P02768); test: as above
Coronin-1A (human) = Coronin-1A (human) (UniProt P31146); test: as above
[14] = target: Bactericidal permeability-increasing protein (human) (UniProt P17213); test: as above
[15] = target: Protein tyrosine phosphatase (human) (UniProt P08575); test: as above
[16] = target: Adenylyl cyclase-associated protein (human) (UniProt B2RDY9); test: as above
[17] = target: Glyceraldehyde-3-phosphate dehydrogenase (human) (UniProt P04406); test: as above
cDNA FLJ75120 (human) = cDNA FLJ75120 (human) (UniProt Q99536); test: as above
[18] = target: Endoplasmic reticulum resident protein ERp44 (human) (UniProt Q9BS26); test: as above
Sequence of UniProt Q9BS26 (Q9BS26 30-406 limits assumed): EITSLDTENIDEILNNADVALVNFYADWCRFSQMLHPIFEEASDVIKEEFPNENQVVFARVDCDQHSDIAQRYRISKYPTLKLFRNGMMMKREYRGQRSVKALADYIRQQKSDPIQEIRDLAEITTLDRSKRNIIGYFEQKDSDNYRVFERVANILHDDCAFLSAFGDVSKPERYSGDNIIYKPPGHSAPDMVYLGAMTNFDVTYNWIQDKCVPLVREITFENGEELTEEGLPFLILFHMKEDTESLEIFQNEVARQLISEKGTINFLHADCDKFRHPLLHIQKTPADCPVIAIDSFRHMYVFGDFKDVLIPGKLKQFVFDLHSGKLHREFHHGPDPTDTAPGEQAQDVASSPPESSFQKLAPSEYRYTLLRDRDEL

[19] = target: Adipocyte plasma membrane-associated protein (human) (UniProt Q9HDC9); test: as above
[20] = target: human CD18 (Integrin beta 2) (human); test: as above
Actin (human) = Actin (human) (UniProt P63261); test: as above
cDNA FLJ78440 (human) = cDNA FLJ78440 (human) (UniProt A8K494); test: as above
cDNA, FLJ92148 (human) = cDNA, FLJ92148 (human) (UniProt B2R4M6); test: as above
Protein S100-A8 (human) = Protein S100-A8 (human) (UniProt P05109); test: as above
Sequence of UniProt P05109 (P05109 whole entry): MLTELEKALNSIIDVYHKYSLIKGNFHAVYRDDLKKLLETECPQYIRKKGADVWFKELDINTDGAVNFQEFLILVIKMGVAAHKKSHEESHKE

SFPQ protein (human) = test: as above
[21] = target: Heat shock 70kDa protein 1A (human) (UniProt A8K5I0); test: as above
Plastin-2 (human) = Plastin-2 (human) (UniProt P13796); test: as above
Sequence of UniProt P13796 (P13796 2-627 limits assumed): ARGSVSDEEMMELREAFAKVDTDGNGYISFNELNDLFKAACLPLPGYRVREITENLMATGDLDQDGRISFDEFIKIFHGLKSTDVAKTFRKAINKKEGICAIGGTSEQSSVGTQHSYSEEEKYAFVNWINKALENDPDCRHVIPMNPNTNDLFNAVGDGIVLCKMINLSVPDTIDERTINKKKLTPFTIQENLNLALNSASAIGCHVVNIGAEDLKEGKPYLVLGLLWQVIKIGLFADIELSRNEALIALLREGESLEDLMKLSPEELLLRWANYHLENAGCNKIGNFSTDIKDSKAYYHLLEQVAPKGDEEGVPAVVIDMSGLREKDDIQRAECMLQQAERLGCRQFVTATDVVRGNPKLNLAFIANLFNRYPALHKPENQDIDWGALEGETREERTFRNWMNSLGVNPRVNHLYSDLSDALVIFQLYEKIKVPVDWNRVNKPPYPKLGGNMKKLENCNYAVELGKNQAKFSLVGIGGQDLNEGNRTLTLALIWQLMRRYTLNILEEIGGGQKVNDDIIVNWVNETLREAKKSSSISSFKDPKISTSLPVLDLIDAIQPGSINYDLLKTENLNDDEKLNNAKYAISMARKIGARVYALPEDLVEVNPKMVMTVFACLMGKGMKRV

Myosin-9 (human) = Myosin-9 (human) (UniProt P35579); test: as above
cDNA FLJ55493 (human) = cDNA FLJ55493 (human) (UniProt B4DMF5); test: as above
Myeloperoxidase (human) = Myeloperoxidase (human) (UniProt P05164); test: as above
[22] = target: Glucose-6-phosphate isomerase (human) (UniProt P06744); test: as above
[23] = target: Pyruvate kinase isozymes M1/M2 (human) (UniProt P14618); test: as above
[24] = target: human recombinant CD11b I domain (N-terminal 6x-His, C-terminal 6x-glycine linker and 3x-Flag) (human) (UniProt P11215); test: SPR
[25] = target: human recombinant Mac-1 (CD11b/CD18, integrin alphaM/beta2), R&D Systems (human) (UniProt P05107); test: SPR (Biacore T100), Mac-1 immobilised on CM5 chip, LukAB as analyte, multi cycle kinetics

How did the percent depletion of CD11b+ HEK293T cells (CD11b transfected), 40 µg/ml LukAB, 2 hours, flow cytometry [1] turn out when “His-tagged LukAB (leukotoxin AB, purified recombinant from S. aureus Newman)” was run?
The percent depletion of CD11b+ HEK293T cells (CD11b transfected), 40 µg/ml LukAB, 2 hours, flow cytometry was 80 to 90%.

And the Kd [2]?
The Kd was 0.00192 µM.

What about the # of peptides (CD63 antigen (human)) of the same substance?
The # of peptides was 3 peptides.

And the # of peptides (cDNA FLJ76817 (human))?
The # of peptides was 3 peptides.

What about the # of peptides (Transketolase (human)) of the same substance?
The # of peptides was 4 peptides.

And the # of peptides (cDNA FLJ53963 (human))?
The # of peptides was 3 peptides.

And the # of peptides [3]?
The # of peptides was 5 peptides.

And the # of peptides [4]?
Its # of peptides is 3 peptides.

What about the # of peptides [5] of the same substance?
Its # of peptides is 3 peptides.

What about the # of peptides [6] of the same substance?
Its # of peptides is 5 peptides.

And the # of peptides (Alpha-enolase (human))?
Its # of peptides is 3 peptides.

What about the # of peptides (Alpha-actinin-1 (human)) of the same substance?
Its # of peptides is 3 peptides.

And the # of peptides [7]?
Its # of peptides is 4 peptides.

And the # of peptides [8]?
Its # of peptides is 5 peptides.

And the # of peptides [9]?
Its # of peptides is 3 peptides.

What about the # of peptides [10] of the same substance?
Its # of peptides is 4 peptides.

What about the # of peptides (Cntm_P13645) of the same substance?
Its # of peptides is 10 peptides.

What about the # of peptides (cDNA FLJ55635 (human)) of the same substance?
The # of peptides was 7 peptides.

And the # of peptides (Malic enzyme (human))?
The # of peptides was 5 peptides.

What about the # of peptides [11] of the same substance?
Its # of peptides is 17 peptides.

What about the # of peptides (Catalase (human)) of the same substance?
Its # of peptides is 3 peptides.

And the # of peptides [12]?
The # of peptides was 3 peptides.

What about the # of peptides [13] of the same substance?
Its # of peptides is 5 peptides.

And the # of peptides (Serum albumin (human))?
The # of peptides was 13 peptides.

And the # of peptides (Coronin-1A (human))?
The # of peptides was 6 peptides.

And the # of peptides [14]?
The # of peptides was 6 peptides.

What about the # of peptides [15] of the same substance?
The # of peptides was 3 peptides.

And the # of peptides [16]?
Its # of peptides is 4 peptides.

What about the # of peptides [17] of the same substance?
Its # of peptides is 6 peptides.

What about the # of peptides (cDNA FLJ75120 (human)) of the same substance?
The # of peptides was 5 peptides.

What about the # of peptides [18] of the same substance?
Its # of peptides is 4 peptides.

What about the # of peptides [19] of the same substance?
The # of peptides was 5 peptides.

And the # of peptides [20]?
Its # of peptides is 12 peptides.

What about the # of peptides (Actin (human)) of the same substance?
Its # of peptides is 7 peptides.

And the # of peptides (cDNA FLJ78440 (human))?
Its # of peptides is 8 peptides.

What about the # of peptides (cDNA, FLJ92148 (human)) of the same substance?
Its # of peptides is 4 peptides.

And the # of peptides (Protein S100-A8 (human))?
Its # of peptides is 5 peptides.

And the # of peptides (SFPQ protein (human))?
Its # of peptides is 4 peptides.

And the # of peptides [21]?
Its # of peptides is 5 peptides.

What about the # of peptides (Plastin-2 (human)) of the same substance?
The # of peptides was 8 peptides.

What about the # of peptides (Myosin-9 (human)) of the same substance?
Its # of peptides is 3 peptides.

And the # of peptides (cDNA FLJ55493 (human))?
Its # of peptides is 5 peptides.

And the # of peptides (Myeloperoxidase (human))?
Its # of peptides is 7 peptides.

And the # of peptides [22]?
Its # of peptides is 3 peptides.

And the # of peptides [23]?
Its # of peptides is 9 peptides.

What about the difference in Kd against the LukAB-murine CD11b I-domain interaction [24] of the same substance?
Its difference in Kd against the LukAB-murine CD11b I-domain interaction is 8 to 9 logs.

And the Kd [25]?
The Kd was 0.0384 µM.
